Each block holds one substance with its values, some of them ahead of it.
How the values were obtained:
gors2_human GORASP2 = gors2_human GORASP2 (UniProt Q9H8Y8)
dpyl2_human DPYSL2 [1] = molecular target: dpyl2_human DPYSL2 (UniProt Q16555)
dpyl5_human DPYSL5 = molecular target: T1, dpyl5_human DPYSL5 (UniProt Q9BPU6)
T1 sequence: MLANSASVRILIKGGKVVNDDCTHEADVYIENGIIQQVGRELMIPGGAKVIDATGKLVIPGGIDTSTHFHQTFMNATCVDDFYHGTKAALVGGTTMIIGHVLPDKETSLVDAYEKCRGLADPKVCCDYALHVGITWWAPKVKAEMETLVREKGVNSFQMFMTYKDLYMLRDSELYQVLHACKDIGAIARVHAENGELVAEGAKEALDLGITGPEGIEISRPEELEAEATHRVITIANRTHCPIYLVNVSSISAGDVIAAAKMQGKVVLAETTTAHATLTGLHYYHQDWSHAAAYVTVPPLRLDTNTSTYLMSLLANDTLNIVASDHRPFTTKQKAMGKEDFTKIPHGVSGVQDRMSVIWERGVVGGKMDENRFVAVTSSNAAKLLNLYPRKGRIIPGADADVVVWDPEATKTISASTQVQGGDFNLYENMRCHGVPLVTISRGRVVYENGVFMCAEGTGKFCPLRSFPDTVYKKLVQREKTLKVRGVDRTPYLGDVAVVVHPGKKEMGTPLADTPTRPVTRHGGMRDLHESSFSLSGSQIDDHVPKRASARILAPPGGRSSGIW

dpyl3_human DPYSL3 = dpyl3_human DPYSL3 (UniProt Q14195)
zsc32_human ZSCAN32 = zsc32_human ZSCAN32 (UniProt Q9NX65)
zsc32_human ZSCAN32, sequence (Q9NX65 whole entry): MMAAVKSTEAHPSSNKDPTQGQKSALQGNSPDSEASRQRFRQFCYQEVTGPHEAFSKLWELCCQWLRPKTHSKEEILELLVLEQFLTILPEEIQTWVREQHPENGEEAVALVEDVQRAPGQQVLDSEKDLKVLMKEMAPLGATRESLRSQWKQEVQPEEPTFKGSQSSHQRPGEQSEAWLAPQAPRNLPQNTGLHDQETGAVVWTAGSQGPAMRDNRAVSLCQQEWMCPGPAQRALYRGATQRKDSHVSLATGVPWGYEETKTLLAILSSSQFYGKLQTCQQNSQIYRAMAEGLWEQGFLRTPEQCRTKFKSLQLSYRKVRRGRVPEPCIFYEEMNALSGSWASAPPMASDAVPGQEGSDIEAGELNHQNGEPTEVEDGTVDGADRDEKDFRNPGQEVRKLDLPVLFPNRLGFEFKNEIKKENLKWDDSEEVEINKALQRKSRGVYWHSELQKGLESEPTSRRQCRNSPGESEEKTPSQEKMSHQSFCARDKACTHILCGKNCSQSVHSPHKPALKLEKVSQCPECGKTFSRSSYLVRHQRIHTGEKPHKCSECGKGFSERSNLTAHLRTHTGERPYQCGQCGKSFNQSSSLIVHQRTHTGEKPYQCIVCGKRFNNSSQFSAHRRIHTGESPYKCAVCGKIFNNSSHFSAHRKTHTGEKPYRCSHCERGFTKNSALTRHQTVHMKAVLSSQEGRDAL

ck068_human C11orf68 = ck068_human C11orf68 (UniProt Q9H3H3)
ck068_human C11orf68, sequence (Q9H3H3 whole entry): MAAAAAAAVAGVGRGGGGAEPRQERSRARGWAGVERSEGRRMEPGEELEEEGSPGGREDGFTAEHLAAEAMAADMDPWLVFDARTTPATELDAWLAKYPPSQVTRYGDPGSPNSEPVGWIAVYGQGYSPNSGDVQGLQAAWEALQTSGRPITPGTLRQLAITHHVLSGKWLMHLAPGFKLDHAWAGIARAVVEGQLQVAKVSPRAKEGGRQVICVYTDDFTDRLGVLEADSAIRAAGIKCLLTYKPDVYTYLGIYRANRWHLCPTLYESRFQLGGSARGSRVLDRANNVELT

lnx1_human LNX1 = lnx1_human LNX1 (UniProt Q8TBB1)
lnx1_human LNX1, sequence (Q8TBB1 whole entry): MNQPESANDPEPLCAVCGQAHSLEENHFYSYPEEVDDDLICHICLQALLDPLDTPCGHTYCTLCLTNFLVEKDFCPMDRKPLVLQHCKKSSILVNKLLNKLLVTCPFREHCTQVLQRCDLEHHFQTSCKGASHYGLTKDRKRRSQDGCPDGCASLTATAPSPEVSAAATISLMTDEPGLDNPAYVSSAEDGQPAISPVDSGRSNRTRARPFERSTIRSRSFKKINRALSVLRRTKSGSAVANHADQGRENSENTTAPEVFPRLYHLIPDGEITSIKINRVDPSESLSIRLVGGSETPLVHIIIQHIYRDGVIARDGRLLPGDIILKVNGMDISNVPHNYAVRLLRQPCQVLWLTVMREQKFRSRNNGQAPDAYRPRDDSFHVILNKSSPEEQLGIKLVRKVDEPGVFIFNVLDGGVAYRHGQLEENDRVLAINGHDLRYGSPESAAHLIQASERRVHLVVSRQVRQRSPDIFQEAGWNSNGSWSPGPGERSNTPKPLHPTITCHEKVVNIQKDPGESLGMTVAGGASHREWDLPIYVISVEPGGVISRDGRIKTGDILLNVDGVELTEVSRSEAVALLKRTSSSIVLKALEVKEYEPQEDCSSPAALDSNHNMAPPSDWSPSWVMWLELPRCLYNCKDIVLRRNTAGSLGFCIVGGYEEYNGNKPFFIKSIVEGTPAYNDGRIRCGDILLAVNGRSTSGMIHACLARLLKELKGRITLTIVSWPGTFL

traf4_human TRAF4 = molecular target: T2, traf4_human TRAF4 (UniProt Q9BUZ4)
T2 sequence: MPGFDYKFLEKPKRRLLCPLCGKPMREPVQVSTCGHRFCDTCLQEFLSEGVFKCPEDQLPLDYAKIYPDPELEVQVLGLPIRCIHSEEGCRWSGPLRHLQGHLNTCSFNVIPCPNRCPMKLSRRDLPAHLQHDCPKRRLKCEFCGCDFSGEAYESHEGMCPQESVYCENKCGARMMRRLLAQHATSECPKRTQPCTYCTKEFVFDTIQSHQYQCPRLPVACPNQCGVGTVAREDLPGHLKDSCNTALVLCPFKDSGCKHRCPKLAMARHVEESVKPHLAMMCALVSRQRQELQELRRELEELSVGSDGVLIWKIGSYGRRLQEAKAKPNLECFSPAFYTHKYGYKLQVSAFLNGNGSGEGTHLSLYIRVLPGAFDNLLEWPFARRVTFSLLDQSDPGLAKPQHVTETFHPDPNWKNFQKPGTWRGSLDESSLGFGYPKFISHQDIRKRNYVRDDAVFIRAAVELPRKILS

aakb2_human PRKAB2 = aakb2_human PRKAB2 (UniProt O43741)
zbt24_human ZBTB24 = zbt24_human ZBTB24 (UniProt O43167)
emp3_human EMP3 = emp3_human EMP3 (UniProt P54852)
ppla_human PLN = ppla_human PLN (UniProt P26678)
vatl_human ATP6V0C = vatl_human ATP6V0C (UniProt P27449)
mal_human MAL = mal_human MAL (UniProt P21145)
mal_human MAL, sequence (P21145 whole entry): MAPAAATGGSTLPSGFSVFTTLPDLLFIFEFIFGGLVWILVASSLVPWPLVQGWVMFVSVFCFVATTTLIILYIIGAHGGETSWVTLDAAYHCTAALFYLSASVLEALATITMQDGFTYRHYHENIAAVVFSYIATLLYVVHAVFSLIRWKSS

efhc2_human EFHC2 = molecular target: T3, efhc2_human EFHC2 (UniProt Q5JST6)
T3 sequence: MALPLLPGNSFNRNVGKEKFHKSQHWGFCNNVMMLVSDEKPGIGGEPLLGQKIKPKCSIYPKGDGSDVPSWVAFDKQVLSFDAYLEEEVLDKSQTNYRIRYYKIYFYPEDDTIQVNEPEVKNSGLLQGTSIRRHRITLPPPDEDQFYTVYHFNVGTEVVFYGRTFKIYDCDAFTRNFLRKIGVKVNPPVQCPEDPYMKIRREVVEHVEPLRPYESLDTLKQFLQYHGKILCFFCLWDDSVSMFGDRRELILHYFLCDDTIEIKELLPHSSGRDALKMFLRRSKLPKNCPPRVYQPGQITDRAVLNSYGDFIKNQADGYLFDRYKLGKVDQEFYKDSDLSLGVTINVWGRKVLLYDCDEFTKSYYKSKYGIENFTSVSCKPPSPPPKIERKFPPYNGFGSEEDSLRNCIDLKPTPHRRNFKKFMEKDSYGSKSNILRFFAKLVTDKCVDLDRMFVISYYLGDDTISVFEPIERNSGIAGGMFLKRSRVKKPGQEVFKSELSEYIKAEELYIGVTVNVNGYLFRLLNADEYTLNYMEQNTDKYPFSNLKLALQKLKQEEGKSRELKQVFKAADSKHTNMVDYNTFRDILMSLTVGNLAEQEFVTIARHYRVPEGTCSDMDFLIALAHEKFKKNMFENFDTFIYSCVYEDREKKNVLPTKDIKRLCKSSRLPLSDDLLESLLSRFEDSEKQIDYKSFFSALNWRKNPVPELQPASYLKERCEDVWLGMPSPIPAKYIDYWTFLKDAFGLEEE

bnip3_human BNIP3 = bnip3_human BNIP3 (UniProt Q12983)
nasp_human NASP = nasp_human NASP (UniProt P49321)
pacn1_human PACSIN1 = pacn1_human PACSIN1 (UniProt Q9BY11)
elmo1_human ELMO1 = elmo1_human ELMO1 (UniProt Q92556)
elmo1_human ELMO1, sequence (Q92556 whole entry): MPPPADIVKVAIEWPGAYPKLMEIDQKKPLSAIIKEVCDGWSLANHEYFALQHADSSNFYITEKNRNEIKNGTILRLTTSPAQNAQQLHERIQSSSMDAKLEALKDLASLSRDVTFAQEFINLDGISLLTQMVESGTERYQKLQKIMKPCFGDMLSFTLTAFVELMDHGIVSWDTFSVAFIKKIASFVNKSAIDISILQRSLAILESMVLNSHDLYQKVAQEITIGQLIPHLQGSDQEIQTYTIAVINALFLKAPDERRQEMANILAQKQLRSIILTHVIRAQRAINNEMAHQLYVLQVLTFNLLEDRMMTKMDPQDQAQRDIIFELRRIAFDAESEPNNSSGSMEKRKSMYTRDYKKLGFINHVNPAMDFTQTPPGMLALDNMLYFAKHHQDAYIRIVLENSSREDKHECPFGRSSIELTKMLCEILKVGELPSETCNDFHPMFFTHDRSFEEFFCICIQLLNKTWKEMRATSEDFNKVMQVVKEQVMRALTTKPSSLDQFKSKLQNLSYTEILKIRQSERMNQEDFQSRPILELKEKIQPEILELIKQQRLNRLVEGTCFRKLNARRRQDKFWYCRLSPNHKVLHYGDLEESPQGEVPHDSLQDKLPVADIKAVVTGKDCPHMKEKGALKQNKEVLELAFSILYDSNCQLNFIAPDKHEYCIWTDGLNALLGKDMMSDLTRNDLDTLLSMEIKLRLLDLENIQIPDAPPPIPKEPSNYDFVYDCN

pls1_human PLSCR1 = pls1_human PLSCR1 (UniProt O15162)
cep70_human CEP70 = cep70_human CEP70 (UniProt Q8NHQ1)
cep70_human CEP70, sequence (Q8NHQ1 whole entry): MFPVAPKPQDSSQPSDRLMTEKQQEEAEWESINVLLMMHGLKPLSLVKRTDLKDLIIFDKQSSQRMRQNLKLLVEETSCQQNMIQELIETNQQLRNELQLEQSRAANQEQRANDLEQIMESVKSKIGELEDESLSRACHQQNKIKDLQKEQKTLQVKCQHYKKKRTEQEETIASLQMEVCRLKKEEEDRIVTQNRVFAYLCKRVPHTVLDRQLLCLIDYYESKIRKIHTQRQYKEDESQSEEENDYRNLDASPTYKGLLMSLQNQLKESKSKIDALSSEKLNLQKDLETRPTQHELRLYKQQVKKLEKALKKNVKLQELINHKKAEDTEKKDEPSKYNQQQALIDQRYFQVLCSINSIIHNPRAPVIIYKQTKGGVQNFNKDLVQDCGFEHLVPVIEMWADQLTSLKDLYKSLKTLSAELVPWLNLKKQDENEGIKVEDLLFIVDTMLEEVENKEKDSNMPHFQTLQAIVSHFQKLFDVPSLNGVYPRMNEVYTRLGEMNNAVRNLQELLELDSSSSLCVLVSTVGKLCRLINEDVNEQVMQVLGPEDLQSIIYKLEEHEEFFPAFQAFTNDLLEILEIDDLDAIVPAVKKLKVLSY

phs_human PCBD1 = phs_human PCBD1 (UniProt P61457)
acy3_human ACY3 = molecular target: T4, acy3_human ACY3 (UniProt Q96HD9)
T4 sequence: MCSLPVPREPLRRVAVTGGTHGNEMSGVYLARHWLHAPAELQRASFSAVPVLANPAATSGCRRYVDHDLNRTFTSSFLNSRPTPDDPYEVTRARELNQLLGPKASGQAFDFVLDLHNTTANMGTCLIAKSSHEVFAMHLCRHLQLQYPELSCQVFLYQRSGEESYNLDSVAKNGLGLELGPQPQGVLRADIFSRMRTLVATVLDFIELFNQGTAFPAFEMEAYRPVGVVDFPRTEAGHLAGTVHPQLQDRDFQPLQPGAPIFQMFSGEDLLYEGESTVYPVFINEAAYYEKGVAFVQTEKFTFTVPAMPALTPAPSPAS

zmat1_human ZMAT1 = zmat1_human ZMAT1 (UniProt Q5H9K5)
dmc1_human DMC1 = molecular target: T5, dmc1_human DMC1 (UniProt Q14565)
T5 sequence: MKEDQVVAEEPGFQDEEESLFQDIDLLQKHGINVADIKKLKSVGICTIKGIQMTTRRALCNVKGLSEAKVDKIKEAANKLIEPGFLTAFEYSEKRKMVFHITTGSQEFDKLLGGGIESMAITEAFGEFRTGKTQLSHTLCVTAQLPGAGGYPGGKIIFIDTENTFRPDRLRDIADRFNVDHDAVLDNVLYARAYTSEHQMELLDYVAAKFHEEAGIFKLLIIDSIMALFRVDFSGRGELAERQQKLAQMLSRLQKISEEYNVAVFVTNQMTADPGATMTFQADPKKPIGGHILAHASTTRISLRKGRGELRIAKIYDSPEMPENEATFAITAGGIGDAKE

cryaa_human CRYAA = cryaa_human CRYAA (UniProt P02489)
dpyl2_human DPYSL2 [2] = molecular target: dpyl2_human DPYSL2 (UniProt Q16555); remark: listed apart in the source
ei2ba_human EIF2B1 = ei2ba_human EIF2B1 (UniProt Q14232)
prdx3_human PRDX3 = molecular target: T6, prdx3_human PRDX3 (UniProt P30048)
T6 sequence: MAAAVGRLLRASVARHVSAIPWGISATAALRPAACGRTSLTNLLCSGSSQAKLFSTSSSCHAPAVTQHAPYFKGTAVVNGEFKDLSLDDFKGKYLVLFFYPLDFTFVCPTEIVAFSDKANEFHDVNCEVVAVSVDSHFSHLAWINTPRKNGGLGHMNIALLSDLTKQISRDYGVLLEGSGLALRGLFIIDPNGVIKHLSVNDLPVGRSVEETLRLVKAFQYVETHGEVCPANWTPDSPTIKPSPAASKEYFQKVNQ

npal3_human NIPAL3 = npal3_human NIPAL3 (UniProt Q6P499)
lerl1_human LEPROTL1 = lerl1_human LEPROTL1 (UniProt O95214)
BCL2L13 = BCL2L13 (UniProt Q9BXK5)
creb3_human CREB3 = molecular target: T7, creb3_human CREB3 (UniProt O43889)
T7 sequence: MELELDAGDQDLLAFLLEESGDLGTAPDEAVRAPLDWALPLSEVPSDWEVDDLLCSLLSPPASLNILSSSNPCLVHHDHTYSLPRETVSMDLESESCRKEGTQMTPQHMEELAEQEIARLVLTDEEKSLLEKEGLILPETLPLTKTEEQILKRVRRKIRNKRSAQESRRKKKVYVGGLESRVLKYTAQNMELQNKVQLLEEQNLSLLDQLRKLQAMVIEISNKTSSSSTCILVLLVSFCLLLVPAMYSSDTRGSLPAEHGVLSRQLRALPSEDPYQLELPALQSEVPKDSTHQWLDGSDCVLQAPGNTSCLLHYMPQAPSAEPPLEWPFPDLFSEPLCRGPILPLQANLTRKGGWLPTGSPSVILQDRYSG

trip6_human TRIP6 = trip6_human TRIP6 (UniProt Q15654)
trip6_human TRIP6, sequence (Q15654 whole entry): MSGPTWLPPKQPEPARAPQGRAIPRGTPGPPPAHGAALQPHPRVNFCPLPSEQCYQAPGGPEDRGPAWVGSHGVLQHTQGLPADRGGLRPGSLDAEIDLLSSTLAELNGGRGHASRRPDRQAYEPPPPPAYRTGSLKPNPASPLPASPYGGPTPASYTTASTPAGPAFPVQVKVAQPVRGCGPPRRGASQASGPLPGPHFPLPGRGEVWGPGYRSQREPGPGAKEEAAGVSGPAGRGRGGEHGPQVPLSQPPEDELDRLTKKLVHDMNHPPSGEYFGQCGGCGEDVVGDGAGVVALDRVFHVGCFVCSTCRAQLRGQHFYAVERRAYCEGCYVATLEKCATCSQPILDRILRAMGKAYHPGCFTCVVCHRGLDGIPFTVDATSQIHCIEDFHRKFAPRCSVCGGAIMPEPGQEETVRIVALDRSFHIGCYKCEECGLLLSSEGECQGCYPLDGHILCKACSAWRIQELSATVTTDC

Isoform 1 of Ectodysplasin-A (Homo sapiens), Q92838-1 P118L, sequence (Q92838 whole entry P118L, canonical isoform): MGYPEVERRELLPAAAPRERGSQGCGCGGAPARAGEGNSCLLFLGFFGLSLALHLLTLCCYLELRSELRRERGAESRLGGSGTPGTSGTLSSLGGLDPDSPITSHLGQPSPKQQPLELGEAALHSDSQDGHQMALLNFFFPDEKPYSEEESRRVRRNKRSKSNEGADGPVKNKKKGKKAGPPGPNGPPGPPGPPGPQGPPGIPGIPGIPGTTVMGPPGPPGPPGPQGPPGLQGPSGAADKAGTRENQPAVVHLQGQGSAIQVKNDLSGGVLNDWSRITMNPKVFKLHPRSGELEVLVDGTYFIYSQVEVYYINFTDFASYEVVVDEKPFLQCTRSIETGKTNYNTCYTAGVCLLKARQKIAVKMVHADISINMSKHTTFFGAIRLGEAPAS
Ectodysplasin-A (Homo sapiens), Q92838 R334H, sequence (Q92838 whole entry R334H): as the sequence (Q92838 whole entry P118L, canonical isoform) above, with L118P, R334H counted along it
Regulator of G-protein signaling 3 (Homo sapiens), P49796-4 R528Q, sequence (P49796 other isoform, or with tags, fused parts or gaps R528Q): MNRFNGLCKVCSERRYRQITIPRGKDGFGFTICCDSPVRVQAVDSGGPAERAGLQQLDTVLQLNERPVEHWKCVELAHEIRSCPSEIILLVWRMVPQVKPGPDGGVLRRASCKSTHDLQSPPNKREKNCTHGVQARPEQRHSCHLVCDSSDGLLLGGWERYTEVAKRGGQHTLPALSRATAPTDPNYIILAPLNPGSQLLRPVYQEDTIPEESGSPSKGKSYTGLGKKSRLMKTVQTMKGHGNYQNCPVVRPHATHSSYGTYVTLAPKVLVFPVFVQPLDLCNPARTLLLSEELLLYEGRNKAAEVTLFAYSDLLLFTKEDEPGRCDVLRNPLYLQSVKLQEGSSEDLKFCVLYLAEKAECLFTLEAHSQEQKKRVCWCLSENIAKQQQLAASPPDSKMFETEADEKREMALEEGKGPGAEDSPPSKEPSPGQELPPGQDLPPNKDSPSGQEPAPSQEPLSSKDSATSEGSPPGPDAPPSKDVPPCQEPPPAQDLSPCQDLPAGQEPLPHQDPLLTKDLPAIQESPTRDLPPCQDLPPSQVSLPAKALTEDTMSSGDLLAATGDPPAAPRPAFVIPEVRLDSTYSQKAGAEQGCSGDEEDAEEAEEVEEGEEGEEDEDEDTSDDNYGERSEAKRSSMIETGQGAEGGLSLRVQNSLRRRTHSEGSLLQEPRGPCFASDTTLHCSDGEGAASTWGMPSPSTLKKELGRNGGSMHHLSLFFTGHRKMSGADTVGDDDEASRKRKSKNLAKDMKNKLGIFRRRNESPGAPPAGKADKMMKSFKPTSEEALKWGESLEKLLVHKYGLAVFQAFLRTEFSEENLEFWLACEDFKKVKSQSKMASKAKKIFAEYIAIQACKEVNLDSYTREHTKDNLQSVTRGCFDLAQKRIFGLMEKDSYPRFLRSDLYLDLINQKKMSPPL

- effect of a mutation on the interaction (zsc32_human ZSCAN32): with no effect
Substance: Zinc finger protein with KRAB and SCAN domains 1 (Homo sapiens), P17029 R155K

- effect of a mutation on the interaction (ck068_human C11orf68): with no effect
- effect of a mutation on the interaction (lnx1_human LNX1): with no effect
Substance: Eukaryotic translation initiation factor 4H (Homo sapiens), Q15056 G164V

- effect of a mutation on the interaction (traf4_human TRAF4): with no effect
Substance: Large ribosomal subunit protein bL28m (Homo sapiens) (from UniProt Q13084) D160E

- effect of a mutation on the interaction (emp3_human EMP3): with no effect
- effect of a mutation on the interaction (ppla_human PLN): with no effect
- effect of a mutation on the interaction (vatl_human ATP6V0C): with no effect
- effect of a mutation on the interaction (mal_human MAL): with no effect
Substance: Isoform 1 of Ectodysplasin-A (Homo sapiens), Q92838-1 P118L

- effect of a mutation on the interaction (pacn1_human PACSIN1): disrupting interaction strength
Substance: Protein kinase C and casein kinase substrate in neurons protein 3 (Homo sapiens) (from UniProt Q9UKS6) A61V

- effect of a mutation on the interaction (pls1_human PLSCR1): with no effect
Substance: Regulator of G-protein signaling 3 (Homo sapiens), P49796-4 R528Q

Second part, the substance before the results:

Substance: Dihydropyrimidinase-related protein 2 (Homo sapiens) (from UniProt Q16555-1) R481C
- effect of a mutation on the interaction (gors2_human GORASP2): disrupting interaction strength
- effect of a mutation on the interaction (dpyl2_human DPYSL2 [1]): disrupting interaction strength
- effect of a mutation on the interaction (dpyl5_human DPYSL5): with no effect
- effect of a mutation on the interaction (dpyl3_human DPYSL3): disrupting interaction strength

Substance: Krueppel-like factor 15 (Homo sapiens), Q9UIH9 A199V
- effect of a mutation on the interaction (aakb2_human PRKAB2): with no effect
- effect of a mutation on the interaction (zbt24_human ZBTB24): with no effect

Substance: Chloride intracellular channel protein 3 (Homo sapiens) (from UniProt O95833) M210L
- effect of a mutation on the interaction (efhc2_human EFHC2): with no effect

Substance: Integral membrane protein 2B (Homo sapiens) (from UniProt Q9Y287) I237T
- effect of a mutation on the interaction (bnip3_human BNIP3): with no effect

Substance: Histone H3.3C (Homo sapiens) (from UniProt Q6NXT2) R53C
- effect of a mutation on the interaction (nasp_human NASP): with no effect

Substance: Zinc finger protein 398 (Homo sapiens), Q8TD17 E87D
- effect of a mutation on the interaction (elmo1_human ELMO1): with no effect

Substance: Zinc finger protein 302 (Homo sapiens), Q9NR11 R391H
- effect of a mutation on the interaction (cep70_human CEP70): with no effect

Substance: Golgi reassembly-stacking protein 2 (Homo sapiens) (from UniProt Q9H8Y8) S441C
- effect of a mutation on the interaction (phs_human PCBD1): with no effect
- effect of a mutation on the interaction (acy3_human ACY3): with no effect
- effect of a mutation on the interaction (zmat1_human ZMAT1): with no effect
- effect of a mutation on the interaction (dmc1_human DMC1): with no effect
- effect of a mutation on the interaction (cryaa_human CRYAA): with no effect
- effect of a mutation on the interaction (dpyl2_human DPYSL2 [2]): with no effect
- effect of a mutation on the interaction (ei2ba_human EIF2B1): with no effect
- effect of a mutation on the interaction (prdx3_human PRDX3): disrupting interaction strength

Substance: Ectodysplasin-A (Homo sapiens), Q92838 R334H
- effect of a mutation on the interaction (npal3_human NIPAL3): with no effect
- effect of a mutation on the interaction (lerl1_human LEPROTL1): with no effect

Substance: Integral membrane protein 2B (Homo sapiens) (from UniProt Q9Y287) P31H
- effect of a mutation on the interaction (BCL2L13): with no effect
- effect of a mutation on the interaction (creb3_human CREB3): with no effect

Substance: Rho-related GTP-binding protein RhoQ (Homo sapiens), P17081 E68K
- effect of a mutation on the interaction (trip6_human TRIP6): with no effect
